Results on one molecule are retold here after patent US20260167679A1, “FUSION PROTEIN TARGETING MITOCHONDRIA, METHOD OF MAKING AND USE THEREOF” (UNIVERSITY OF ROCHESTER, priority 2020, published 2026).

This assay concerns AMPK. Briefly: Immunoblot of phosphorylated AMPK. The note with it: animals removed from food, mtON activation. It is filed as in vivo, Caenorhabditis elegans. The protocol:
Synchronized young adult animals were exposed to 1 Hz light (Quantum LED, 0.02 mW/mm2) for 4 h, and immediately harvested with ice-cold M9 media and centrifuged at 1,000×g for 1 min. Animals were ground by plastic pestle disruption in lysis buffer (20 mM Tris-HCl, 100 mM NaCl, 1 mM EDTA, 1 mM DTT, 10% glycerol, 0.1% SDS, pH 7.6, 1×Halt™ protease inhibitor cocktail, Thermo78429) and diluted 1:1 in sample loading buffer (100 mM Tris-HCl, 10% v/v glycerol, 10% SDS, 0.2% w/v bromophenol blue, 2% v/v b-mercaptoethanol). These samples were heated at 95° C. for 5 min. Isolated mitochondrial samples were prepared as described above and diluted 1:1 in sample loading buffer with 1% SDS. […] samples were loaded to 7.5% polyacrylamide gels and separated by SDS-PAGE. Proteins were transferred to nitrocellulose membranes and blocked in 5% non-fat milk/TBST (50 mM Tris, 150 mM NaCl, 0.05% Tween 20, pH 8.0) for 1 h at room temperature. Membranes were incubated at 4° C. in primary antibodies diluted 1:1,000 in 5% bovine serum albumin:anti-GFP (ClonTech Living Colours #ab632375), anti-ATP5a (Abcam, #ab14748), 1:60 anti-HSP60 (Department of Biology, Iowa City, IA 52242; Developmental Studies Hybridoma Bank, University of Iowa Department of Biology, Iowa City, IA 52242), […], anti-Actin (Abcam #ab14128), and 1:10,000 antiphospho-AMPKa Rabbit (Cell Signaling, #2535). […]

B1: mtON: fusion of the 187 N-terminal amino acids of mouse IMMT1 to the light-activated proton pump (Mac) from Leptosphaeria maculans (protein)
chain: MLRACQLSGVTVAAQSCLCGKFVLRPLRPCRRYSTSSSSGLTAGKIAGAGLLFVGGGIGGTILYAKWDSHFRESVEKTIPYSDKLFGMVLGSAPYTVPLPKKPVQSGPLKISSVSEVMKDSKLPVAQSQKTKGDTPASAASTGAAQIISAAGDTLSVPAPAVQHEDTIKTECPNTNEGKSTSETTEEPAGLIVDQFEEVLMKTSQLFPLPTATQSAQPTHVAPVPTVLPDTPIYETVGDSGSKTLWVVFVLMLIASAAFTALSWKIPVNRRLYHVITTIITLTAALSYFAMATGHGVALNKIVIRTQHDHVPDTYETVYRQVYYARYIDWAITTPLLLLDLGLLAGMSGAHIFMAIVADLIMVLTGLFAAFGSEGTPQKWGWYTIACIAYIFVVWHLVLNGGANARVKGEKLRSFFVAIGAYTLILWTAYPIVWGLADGARKIGVDGEIIAYAVLDVLAKGVFGAWLLVTHANLRESDVELNGFWANGLNREGAIRIGEDDGAR
modifications: Synthetic Complete mtON fusion protein sequence
On to B1, for which the AMPK phosphorylation entry was “prevented this phosphorylation”.
